Data on two molecules can be found in paper PMC10402096 (bioRxiv, 2023).

For assay [1], the target named is recombinant 6His-TTLL12 (Tubulin Tyrosine Ligase-Like 12) (UniProt Q14166). The experiment in a line: pull-down.
Assay [2] has as its target T1, recombinant GST-Rab19 (UniProt A4D1S5 1-217).
T1 sequence (looked up): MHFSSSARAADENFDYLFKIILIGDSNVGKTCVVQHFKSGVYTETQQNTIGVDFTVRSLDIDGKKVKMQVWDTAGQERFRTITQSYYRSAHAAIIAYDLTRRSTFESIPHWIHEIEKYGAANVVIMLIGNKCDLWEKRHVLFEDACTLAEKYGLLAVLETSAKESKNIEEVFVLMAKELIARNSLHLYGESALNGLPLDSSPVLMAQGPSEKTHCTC
The assay is described as follows: pull-down.

As for “purified porcine brain tubulin (α/β-tubulin heterodimer, kept unpolymerized at 4°C) (from UniProt P02550 1-451; P02554 1-445) (complex)”, in assay [1], the fold increase in tubulin co-precipitation with Ni-beads when TTLL12 is present worked out at 3 fold.

B1: recombinant 6His-TTLL12 (Tubulin Tyrosine Ligase-Like 12) (natural protein, UniProt Q14166 1-644, looked up)
chain: MEAERGPERRPAERSSPGQTPEEGAQALAEFAALHGPALRASGVPERYWGRLLHKLEHEVFDAGEVFGIMQVEEVEEEEDEAAREVRKQQPNPGNELCYKVIVTRESGLQAAHPNSIFLIDHAWTCRVEHARQQLQQVPGLLHRMANLMGIEFHGELPSTEAVALVLEEMWKFNQTYQLAHGTAEEKMPVWYIMDEFGSRIQHADVPSFATAPFFYMPQQVAYTLLWPLRDLDTGEEVTRDFAYGETDPLIRKCMLLPWAPTDMLDLSSCTPEPPAEHYQAILEENKEKLPLDINPVVHPHGHIFKVYTDVQQVASSLTHPRFTLTQSEADADILFNFSHFKDYRKLSQERPGVLLNQFPCENLLTVKDCLASIARRAGGPEGPPWLPRTFNLRTELPQFVSYFQQRERWGEDNHWICKPWNLARSLDTHVTKSLHSIIRHRESTPKVVSKYIESPVLFLREDVGKVKFDIRYIVLLRSVRPLRLFVYDVFWLRFSNRAFALNDLDDYEKHFTVMNYDPDVVLKQVHCEEFIPEFEKQYPEFPWTDVQAEIFRAFTELFQVACAKPPPLGLCDYPSSRAMYAVDLMLKWDNGPDGRRVMQPQILEVNFNPDCERACRYHPTFFNDVFSTLFLDQPGGCHVTCLV
For B1, the “fold increase in TTLL12 binding against the GST-only control” value in assay [2] is roughly 5 fold.
